Assay results published in patent US20060193829A1.
Blank lines part the entries; values can stand above or below the binder they belong to. Positions of bridges follow the written chain, without caps; N, C: chain ends. No end group written: not given here. *: point of attachment. NHNH2 = NN*

How the values were obtained:
[1] = target: REFACTO® (recombinant factor VIII-like polypeptide consisting of amino acids 1-743 and 1638 through 2332 of human factor VIII) (human) (UniProt P00451); assay: phage ELISA, phage isolate on factor VIII target, anti-M13-HRP
[2] = target: REFACTO® (recombinant factor VIII-like polypeptide consisting of amino acids 1-743 and 1638 through 2332 of human factor VIII) (human) (UniProt P00451); assay: phage ELISA, with target against without target
[3] = target: REFACTO® (recombinant factor VIII-like polypeptide consisting of amino acids 1-743 and 1638 through 2332 of human factor VIII) (human) (UniProt P00451); assay: affinity column, peptide on Toyopearl Formyl 650-M; target in fraction by RP-HPLC
[4] = target: REFACTO® (recombinant factor VIII-like polypeptide consisting of amino acids 1-743 and 1638 through 2332 of human factor VIII) (human) (UniProt P00451); assay: affinity column, peptide on Toyopearl Formyl 650-M; target in fraction by activity assay
[5] = target: REFACTO® (recombinant factor VIII-like polypeptide consisting of amino acids 1-743 and 1638 through 2332 of human factor VIII) (human) (UniProt P00451); assay: batch binding to peptide beads; target in fraction by sandwich ELISA
[6] = target: native human factor VIII (nhfVIII) (human) (UniProt P00451); assay: batch binding to regenerated peptide beads; target in fraction by sandwich ELISA
[7] = target: REFACTO® (recombinant factor VIII-like polypeptide consisting of amino acids 1-743 and 1638 through 2332 of human factor VIII) (human) (UniProt P00451); assay: as above

Chain of REFACTO® (recombinant factor VIII-like polypeptide consisting of amino acids 1-743 and 1638 through 2332 of human factor VIII) (human) (P00451 20-762, chain 1 of 2): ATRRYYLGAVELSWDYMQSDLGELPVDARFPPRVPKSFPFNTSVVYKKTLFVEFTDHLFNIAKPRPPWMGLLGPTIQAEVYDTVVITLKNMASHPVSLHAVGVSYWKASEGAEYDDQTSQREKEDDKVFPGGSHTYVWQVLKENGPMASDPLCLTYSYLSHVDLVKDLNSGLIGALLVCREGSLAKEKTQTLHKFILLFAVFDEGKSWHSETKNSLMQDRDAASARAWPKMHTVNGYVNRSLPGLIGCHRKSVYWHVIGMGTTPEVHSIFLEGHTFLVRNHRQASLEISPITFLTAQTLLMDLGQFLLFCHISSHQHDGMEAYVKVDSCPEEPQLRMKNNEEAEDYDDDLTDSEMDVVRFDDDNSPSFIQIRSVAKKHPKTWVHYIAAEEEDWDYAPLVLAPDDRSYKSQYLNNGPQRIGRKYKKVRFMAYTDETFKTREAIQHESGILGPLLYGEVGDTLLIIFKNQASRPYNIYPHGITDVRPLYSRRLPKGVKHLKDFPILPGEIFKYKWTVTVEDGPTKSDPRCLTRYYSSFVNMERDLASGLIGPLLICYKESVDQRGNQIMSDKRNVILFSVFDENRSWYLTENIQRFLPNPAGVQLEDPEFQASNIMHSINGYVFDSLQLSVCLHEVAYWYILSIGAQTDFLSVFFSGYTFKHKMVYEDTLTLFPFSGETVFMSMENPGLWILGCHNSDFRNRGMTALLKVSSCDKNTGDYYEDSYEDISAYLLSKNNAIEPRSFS
Chain of REFACTO® (recombinant factor VIII-like polypeptide consisting of amino acids 1-743 and 1638 through 2332 of human factor VIII) (human) (P00451 1657-2351, chain 2 of 2): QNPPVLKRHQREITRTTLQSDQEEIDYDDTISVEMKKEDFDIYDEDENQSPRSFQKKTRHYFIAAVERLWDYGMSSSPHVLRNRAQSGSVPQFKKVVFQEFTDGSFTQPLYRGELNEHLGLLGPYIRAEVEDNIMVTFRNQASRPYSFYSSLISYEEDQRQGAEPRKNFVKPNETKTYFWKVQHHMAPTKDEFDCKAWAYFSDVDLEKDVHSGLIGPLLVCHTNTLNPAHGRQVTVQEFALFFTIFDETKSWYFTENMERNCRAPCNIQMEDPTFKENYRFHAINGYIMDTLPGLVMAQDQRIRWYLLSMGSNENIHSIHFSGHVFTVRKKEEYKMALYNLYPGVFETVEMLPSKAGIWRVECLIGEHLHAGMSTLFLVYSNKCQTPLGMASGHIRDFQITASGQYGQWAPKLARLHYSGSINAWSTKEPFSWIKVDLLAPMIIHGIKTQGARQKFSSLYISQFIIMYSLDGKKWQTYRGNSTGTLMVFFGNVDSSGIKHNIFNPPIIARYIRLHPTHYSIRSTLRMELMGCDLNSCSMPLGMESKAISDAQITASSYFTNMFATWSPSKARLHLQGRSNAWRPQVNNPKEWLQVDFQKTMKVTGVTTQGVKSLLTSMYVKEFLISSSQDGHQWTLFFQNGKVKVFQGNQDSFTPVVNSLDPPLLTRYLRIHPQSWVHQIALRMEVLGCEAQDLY
Chain of native human factor VIII (nhfVIII) (human) (P00451 20-2351): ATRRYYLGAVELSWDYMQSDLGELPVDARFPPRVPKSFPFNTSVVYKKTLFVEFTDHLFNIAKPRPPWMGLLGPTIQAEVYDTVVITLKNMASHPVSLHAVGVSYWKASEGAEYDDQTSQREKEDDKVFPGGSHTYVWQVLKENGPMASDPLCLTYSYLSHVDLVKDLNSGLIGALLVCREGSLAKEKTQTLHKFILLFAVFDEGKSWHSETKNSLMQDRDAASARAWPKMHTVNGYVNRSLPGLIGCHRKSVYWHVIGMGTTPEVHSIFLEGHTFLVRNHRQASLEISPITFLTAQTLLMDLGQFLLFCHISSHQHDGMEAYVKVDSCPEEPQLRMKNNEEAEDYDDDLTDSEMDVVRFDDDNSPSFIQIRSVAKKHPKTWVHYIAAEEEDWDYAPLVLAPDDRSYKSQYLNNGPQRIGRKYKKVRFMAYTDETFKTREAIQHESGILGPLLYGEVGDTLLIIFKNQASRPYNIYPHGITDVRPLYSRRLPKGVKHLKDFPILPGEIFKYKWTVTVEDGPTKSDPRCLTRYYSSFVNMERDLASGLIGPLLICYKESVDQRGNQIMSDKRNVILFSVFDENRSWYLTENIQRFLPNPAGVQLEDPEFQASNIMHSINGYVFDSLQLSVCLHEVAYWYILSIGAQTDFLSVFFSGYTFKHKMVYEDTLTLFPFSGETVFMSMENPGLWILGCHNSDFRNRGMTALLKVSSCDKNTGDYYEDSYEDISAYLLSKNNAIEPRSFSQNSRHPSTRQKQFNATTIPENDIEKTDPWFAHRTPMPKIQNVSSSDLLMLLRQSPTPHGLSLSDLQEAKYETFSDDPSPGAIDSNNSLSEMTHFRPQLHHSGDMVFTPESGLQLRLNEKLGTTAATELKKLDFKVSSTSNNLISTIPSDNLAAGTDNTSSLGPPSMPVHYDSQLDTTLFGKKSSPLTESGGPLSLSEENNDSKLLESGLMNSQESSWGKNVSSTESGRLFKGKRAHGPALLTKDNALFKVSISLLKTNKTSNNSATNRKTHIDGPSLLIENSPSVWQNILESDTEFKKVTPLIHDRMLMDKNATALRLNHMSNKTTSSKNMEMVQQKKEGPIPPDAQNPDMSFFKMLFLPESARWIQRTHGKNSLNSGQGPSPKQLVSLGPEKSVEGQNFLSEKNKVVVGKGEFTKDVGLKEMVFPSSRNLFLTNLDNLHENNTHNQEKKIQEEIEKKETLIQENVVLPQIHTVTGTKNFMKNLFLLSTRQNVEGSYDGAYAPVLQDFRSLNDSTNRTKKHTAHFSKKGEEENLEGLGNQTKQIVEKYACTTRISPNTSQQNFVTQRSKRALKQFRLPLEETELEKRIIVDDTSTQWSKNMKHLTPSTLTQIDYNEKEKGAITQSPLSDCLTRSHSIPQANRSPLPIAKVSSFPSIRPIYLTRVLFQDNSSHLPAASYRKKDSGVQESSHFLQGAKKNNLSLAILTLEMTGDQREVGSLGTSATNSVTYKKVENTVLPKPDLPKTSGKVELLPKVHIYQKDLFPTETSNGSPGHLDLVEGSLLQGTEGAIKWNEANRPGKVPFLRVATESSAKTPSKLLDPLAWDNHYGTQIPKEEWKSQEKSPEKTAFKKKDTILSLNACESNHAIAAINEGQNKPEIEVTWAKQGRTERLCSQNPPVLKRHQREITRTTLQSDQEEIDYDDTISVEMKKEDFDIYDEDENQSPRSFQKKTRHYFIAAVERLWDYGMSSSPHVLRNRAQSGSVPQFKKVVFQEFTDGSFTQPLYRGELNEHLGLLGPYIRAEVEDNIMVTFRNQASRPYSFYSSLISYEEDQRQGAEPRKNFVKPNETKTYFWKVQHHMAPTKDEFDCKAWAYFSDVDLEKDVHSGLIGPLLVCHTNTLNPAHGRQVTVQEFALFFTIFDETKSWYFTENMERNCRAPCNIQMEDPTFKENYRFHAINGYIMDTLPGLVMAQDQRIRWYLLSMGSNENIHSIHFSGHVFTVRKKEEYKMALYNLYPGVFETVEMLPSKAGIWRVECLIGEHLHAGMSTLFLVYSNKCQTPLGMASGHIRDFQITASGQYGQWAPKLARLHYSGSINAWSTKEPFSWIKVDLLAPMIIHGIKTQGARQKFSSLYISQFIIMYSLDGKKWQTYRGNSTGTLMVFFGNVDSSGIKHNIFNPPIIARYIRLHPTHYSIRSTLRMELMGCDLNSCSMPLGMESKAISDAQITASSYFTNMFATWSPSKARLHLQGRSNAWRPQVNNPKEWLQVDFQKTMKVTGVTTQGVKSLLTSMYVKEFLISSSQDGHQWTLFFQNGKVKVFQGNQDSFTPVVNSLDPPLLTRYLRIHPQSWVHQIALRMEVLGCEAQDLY

ELISA signal [1]: 0.3 OD630
R (ratio of the ELISA score with target present to the ELISA score without target) [2]: 6
Binder: RLCSWISPCSA [TN7 isolate D04]

ELISA signal [1]: 0.2 OD630
Binder: FCHVFPFLHCD [TN9 isolate 11 (SEQ ID NO: 32)]

ELISA signal [1]: 0.5 OD630
R (ratio of the ELISA score with target present to the ELISA score without target) [2]: 10
Binder: RLCSWVSPCSA [TN7 isolate C5/G10]

% recovery, Elution A [3]: 28.8%
% recovery, Elution B [3]: 0%
% recovery, Flow [3]: 24.6%
% recovery, pH2 [3]: 0%
% recovery, Elution A [4]: 0%
% recovery, Flow [4]: 28.4%
Binder: AEGTGDFCWVFPFHHCFDPGPEGGGS-NHNH2 (disulfide 8-16 (inferred)) [Affinity ligand CS-460]

ELISA signal [1]: 1.1 OD630
R (ratio of the ELISA score with target present to the ELISA score without target) [2]: 24
Binder: FCWVFNFSHCS [TN9 isolate 03 (SEQ ID NO: 26)]

ELISA signal [1]: 0.4 OD630
R (ratio of the ELISA score with target present to the ELISA score without target) [2]: 6
Binder: HACGSWFRPCHA [TN8 isolate 07 (SEQ ID NO: 15)]

ELISA signal [1]: 1 OD630
R (ratio of the ELISA score with target present to the ELISA score without target) [2]: 18
Binder: FCWVFPFNHCS [TN9 isolate 12 (SEQ ID NO: 28)]

ELISA signal [1]: 1 OD630
R (ratio of the ELISA score with target present to the ELISA score without target) [2]: 20
Binder: HPCGAWLRPCYN [TN8 isolate 08 (SEQ ID NO: 20)]

R (ratio of the ELISA score with target present to the ELISA score without target) [2]: 8
Binder: FCWVFQFRHCH [TN9/1 isolate … (SEQ ID NO: 77)]

% recovery, Elution A [3]: 44.8%
% recovery, Elution B [3]: 0%
% recovery, Flow [3]: 3.4%
% recovery, pH2 [3]: 0%
% of Input Recovered in Eluate [5]: 24%
% of Input Recovered in Unbound [5]: 47%
% of Input Recovered in Wash [5]: 20%
% of Total Recovered in Eluate [6]: 16%
% of Total Recovered in Unbound [6]: 70%
% of Total Recovered in Wash [6]: 14%
% recovery, Elution A [4]: 43%
% recovery, Flow [4]: 4.8%
Binder: AEGTGDFGCSWLFPCPFDPGPEGGGS-NHNH2 (disulfide 9-15 (inferred)) [Affinity ligand CS-456]

ELISA signal [1]: 0.2 OD630
Binder: PHCNWLFPCSL [TN7 isolate D03]

ELISA signal [1]: 0.2 OD630
Binder: HGCGAWFRPCHA [TN8 isolate 01 (SEQ ID NO: 18)]

ELISA signal [1]: 1.1 OD630
R (ratio of the ELISA score with target present to the ELISA score without target) [2]: 24
Binder: FCWVFPFQHCA [TN9 isolate 09 (SEQ ID NO: 29)]

ELISA signal [1]: 0.5 OD630
R (ratio of the ELISA score with target present to the ELISA score without target) [2]: 10
Binder: HSCGSWLFPCFA [TN7 isolate A06]

% recovery, Elution A [3]: 42.1%
% recovery, Elution B [3]: 0%
% recovery, Flow [3]: 1.6%
% recovery, pH2 [3]: 0%
% recovery, Elution A [4]: 31.2%
% recovery, Flow [4]: 6.4%
Binder: AEGTGDFCWVFPFQHCADPGPEGGGS-NHNH2 (disulfide 8-16 (inferred)) [Affinity ligand CS-459]

% recovery, Elution A [3]: 43.2%
% recovery, Elution B [3]: 0%
% recovery, Flow [3]: 0%
% recovery, pH2 [3]: 0%
% recovery, Elution A [4]: 26.4%
% recovery, Flow [4]: 0%
Binder: AEGTGDHPCGSWLRPCLHDPGPEGGGS-NHNH2 (disulfide 9-16 (inferred)) [Affinity ligand CS-453]

R (ratio of the ELISA score with target present to the ELISA score without target) [2]: 14
Binder: FCWVFNWVHCD [TN9/1 isolate … (SEQ ID NO: 75)]

ELISA signal [1]: 0.4 OD630
R (ratio of the ELISA score with target present to the ELISA score without target) [2]: 8
Binder: HLCFAWFRPCDA [TN8 isolate 12 (SEQ ID NO: 17)]

R (ratio of the ELISA score with target present to the ELISA score without target) [2]: 24
Binder: FCWVFAFDHCH (not fully specified (bridges); cysteine pairing not given here) [TN9/1 isolate … (SEQ ID NO: 71)]

ELISA signal [1]: 0.4 OD630
R (ratio of the ELISA score with target present to the ELISA score without target) [2]: 8
Binder: FCWVFPFNHCD [TN9 isolate 02 (SEQ ID NO: 27)]

ELISA signal [1]: 0.3 OD630
R (ratio of the ELISA score with target present to the ELISA score without target) [2]: 6
Binder: HPCGSWLHPCAA [TN8 isolate 04 (SEQ ID NO: 12)]

ELISA signal [1]: 0.4 OD630
R (ratio of the ELISA score with target present to the ELISA score without target) [2]: 8
Binder: FGCSWLFPCPF [TN7 isolate A08]

ELISA signal [1]: 0.2 OD630
Binder: FCHVFHFSHCD [TN9 isolate 01 (SEQ ID NO: 24)]

ELISA signal [1]: 0.3 OD630
R (ratio of the ELISA score with target present to the ELISA score without target) [2]: 6
Binder: FCWVFPFHHCF [TN9 isolate 06 (SEQ ID NO: 30)]

ELISA signal [1]: 0.3 OD630
R (ratio of the ELISA score with target present to the ELISA score without target) [2]: 6
Binder: HRCGSWLHPCLA [TN8 isolate 11/G10 (SEQ ID NO: 21)]

% recovery, Elution A [3]: 1.4%
% recovery, Elution B [3]: 0%
% recovery, Flow [3]: 65.8%
% recovery, pH2 [3]: 0%
% recovery, Elution A [4]: 1.3%
% recovery, Flow [4]: 61.6%
Binder: AEGTGDFHCIGVWFCLHDPGPEGGGS-NHNH2 (disulfide 9-15 (inferred)) [Affinity ligand CS-455]

ELISA signal [1]: 0.2 OD630
Binder: FCWVHPFAHCL [TN9 isolate 02 (SEQ ID NO: 23)]

ELISA signal [1]: 0.7 OD630
R (ratio of the ELISA score with target present to the ELISA score without target) [2]: 16
Binder: HPCGSWFRPCFH [TN8 isolate 02 (SEQ ID NO: 14)]

% recovery, Elution A [3]: 54.3%
% recovery, Elution B [3]: 0%
% recovery, Flow [3]: 1.8%
% recovery, pH2 [3]: 0%
% of Input Recovered in Eluate [5]: 47%
% of Input Recovered in Unbound [5]: 20%
% of Input Recovered in Wash [5]: 10%
% of Total Recovered in Eluate [6]: 39%
% of Total Recovered in Unbound [6]: 48%
% of Total Recovered in Wash [6]: 13%
% of Total Recovered in Eluate [7]: 27%
% of Total Recovered in Unbound [7]: 59%
% of Total Recovered in Wash [7]: 14%
% recovery, Elution A [4]: 55.6%
% recovery, Flow [4]: 1.4%
Binder: AEGTGDFCWVFAFDHCHDPGPEGGGS-NHNH2 (disulfide 8-16 (inferred)) [Affinity ligand CS-458]

% recovery, Elution A [3]: 45.1%
% recovery, Elution B [3]: 0%
% recovery, Flow [3]: 2.5%
% recovery, pH2 [3]: 0%
% of Input Recovered in Eluate [5]: 49%
% of Input Recovered in Unbound [5]: 24%
% of Input Recovered in Wash [5]: 12%
% of Total Recovered in Eluate [6]: 21%
% of Total Recovered in Unbound [6]: 67%
% of Total Recovered in Wash [6]: 12%
% recovery, Elution A [4]: 42.4%
% recovery, Flow [4]: 2.2%
Binder: AEGTGDHLCGAWFRPCDADPGPEGGGS-NHNH2 (disulfide 9-16 (inferred)) [Affinity ligand CS-454]

ELISA signal [1]: 0.2 OD630
Binder: RGCGSWLRPCLD [TN8 isolate 05 (SEQ ID NO: 11)]

ELISA signal [1]: 0.3 OD630
R (ratio of the ELISA score with target present to the ELISA score without target) [2]: 8
Binder: HPCGSWFNPCAH [TN8 isolate 02 (SEQ ID NO: 13)]

ELISA signal [1]: 0.1 OD630
Binder: FHCIGVWFCLH [TN7 isolate A09]

ELISA signal [1]: 0.2 OD630
Binder: HPCGAWFNPCPR [TN8 isolate 01 (SEQ ID NO: 19)]

ELISA signal [1]: 0.4 OD630
R (ratio of the ELISA score with target present to the ELISA score without target) [2]: 6
Binder: HLCGAWFRPCDA [TN8 isolate 02 (SEQ ID NO: 16)]

ELISA signal [1]: 1 OD630
R (ratio of the ELISA score with target present to the ELISA score without target) [2]: 16
Binder: HPCGSWLRPCLH [TN8 isolate 10 (SEQ ID NO: 10)]

ELISA signal [1]: 0.5 OD630
R (ratio of the ELISA score with target present to the ELISA score without target) [2]: 8
Binder: FCHVFNFVHCS [TN9 isolate 01 (SEQ ID NO: 31)]
